Experimental findings from IntAct's records for PubMed 18688256 are described below.

This assay has as its target T1, il33_human IL33 (UniProt O95760).
T1 sequence: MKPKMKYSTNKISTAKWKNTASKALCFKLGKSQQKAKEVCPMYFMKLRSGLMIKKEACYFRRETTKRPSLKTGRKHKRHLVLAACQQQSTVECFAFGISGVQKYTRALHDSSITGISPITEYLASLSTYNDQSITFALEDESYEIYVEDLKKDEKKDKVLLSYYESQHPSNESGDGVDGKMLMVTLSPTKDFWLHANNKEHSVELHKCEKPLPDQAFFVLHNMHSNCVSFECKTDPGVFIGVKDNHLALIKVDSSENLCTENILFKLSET

For the substance “Histone H2A type 1 (Homo sapiens) (from UniProt P0C0S8) E92R”, the “effect of a mutation on the interaction” value is reported as “decreasing interaction”.

With “Histone H2A type 1 (Homo sapiens) (from UniProt P0C0S8) E93L”, the “effect of a mutation on the interaction” value was “decreasing interaction”.
